Patent US20120094271A1, “SELECTING FOR COOPERATIVELY INTERACTING MOLECULES” (Arizona Board of Regents for and on behalf of Arizona State …, priority 2008, published 2012)

How the values were obtained:
[1] = target: Beta-galactosidase (β-gal) (Escherichia coli, UniProt P00722); settings: ~12 uM peptide, ~3 nM β-gal
Procedure: (§1) Beta-galactosidase (β-gal) (˜3 nM, Alexa647 labeled, the target) was preincubated with a solution containing ˜12 uM of the peptide “[…]” (the ligand). […] The complex between β-gal and the peptide complex was incubated with a […] 10,000 random sequence peptides (the “test molecules”) bound to the surface of a glass slide in an ordered fashion. The incubation took place for two hours and the binding pattern of this was compared to the binding pattern using only the labeled enzyme and no ligand.

[2] = target: β-gal enzyme (Escherichia coli, UniProt P00722); settings: ~12 uM peptide
Chain of β-gal enzyme (P00722 2-1024): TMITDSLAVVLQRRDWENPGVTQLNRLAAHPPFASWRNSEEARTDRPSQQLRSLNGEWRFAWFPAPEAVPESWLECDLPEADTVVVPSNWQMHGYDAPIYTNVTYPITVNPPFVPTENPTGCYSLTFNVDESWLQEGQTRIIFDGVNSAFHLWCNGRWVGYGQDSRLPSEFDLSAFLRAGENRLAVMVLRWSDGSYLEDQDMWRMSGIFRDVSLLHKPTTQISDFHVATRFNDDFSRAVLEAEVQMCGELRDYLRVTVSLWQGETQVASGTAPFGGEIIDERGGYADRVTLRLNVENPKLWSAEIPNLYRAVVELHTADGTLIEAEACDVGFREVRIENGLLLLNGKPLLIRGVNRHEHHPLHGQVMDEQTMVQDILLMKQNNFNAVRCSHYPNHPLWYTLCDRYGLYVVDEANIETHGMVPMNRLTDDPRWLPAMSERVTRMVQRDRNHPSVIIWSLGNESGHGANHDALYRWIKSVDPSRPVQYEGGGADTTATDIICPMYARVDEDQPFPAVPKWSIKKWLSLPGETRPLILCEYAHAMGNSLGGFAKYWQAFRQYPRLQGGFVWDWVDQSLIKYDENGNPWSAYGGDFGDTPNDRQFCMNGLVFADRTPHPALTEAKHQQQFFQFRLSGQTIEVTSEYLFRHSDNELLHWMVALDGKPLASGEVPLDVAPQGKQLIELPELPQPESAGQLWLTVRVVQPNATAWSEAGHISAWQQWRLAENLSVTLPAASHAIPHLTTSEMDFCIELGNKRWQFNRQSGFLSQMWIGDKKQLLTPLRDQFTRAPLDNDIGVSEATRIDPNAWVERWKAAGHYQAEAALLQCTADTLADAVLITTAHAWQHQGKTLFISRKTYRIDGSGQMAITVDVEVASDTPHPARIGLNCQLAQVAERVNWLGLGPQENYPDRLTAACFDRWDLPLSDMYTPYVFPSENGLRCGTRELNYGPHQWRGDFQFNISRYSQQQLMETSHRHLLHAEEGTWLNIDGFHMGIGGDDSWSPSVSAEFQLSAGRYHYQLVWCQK
Procedure: as §1

[3] = isoelectric point (pI) of peptides; type: physicochemical

Chain of Beta-galactosidase (β-gal) (P00722 2-1024): as above

RVFKRYKRWLHVSRYYFGSC
β-gal activity inhibited [1]: 95%
binding to the β-gal enzyme [2]: binds strongly
isoelectric point (pI) [3]: 10.6
